Among the targets are APE1 C65S (Homo sapiens, UniProt P27695 1-318, C65S); APE1 C310S (Homo sapiens, UniProt P27695 1-318, C310S); APE1 WT (Homo sapiens, UniProt P27695 1-318).
Experiment in all cases: fluorescence anisotropy
A general note: Polarisation of emitted light reports the rotation of a fluorescent probe.

Sequence of APE1 C65S (P27695 whole entry C65S): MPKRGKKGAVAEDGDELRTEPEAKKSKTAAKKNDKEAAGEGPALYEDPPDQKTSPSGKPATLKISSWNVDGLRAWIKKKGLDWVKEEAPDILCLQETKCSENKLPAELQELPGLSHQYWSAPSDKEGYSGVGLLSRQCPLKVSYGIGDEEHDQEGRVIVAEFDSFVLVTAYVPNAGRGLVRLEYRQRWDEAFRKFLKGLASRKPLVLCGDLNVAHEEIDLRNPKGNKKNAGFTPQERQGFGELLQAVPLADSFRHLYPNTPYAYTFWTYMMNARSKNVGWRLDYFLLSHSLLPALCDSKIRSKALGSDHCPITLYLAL
Sequence of APE1 C310S (P27695 whole entry C310S): as the sequence (P27695 whole entry C65S) above, with S65C, C310S counted along it
Sequence of APE1 WT (P27695 whole entry): as the sequence (P27695 whole entry C65S) above, with S65C counted along it

B1: N3-4 G4 (structured_DNA)
DNA: TTGGGCGGGGCCTGGGCGGGGCC
Turning to B1, the binding result with APE1 C65S and in the data set with APE1 C310S was “binds” throughout.

B2: N3 WT duplex (dsDNA)
DNA 1: TTGGGCGGGGCCTGGGCGGGGCC
DNA 2: GGCCCCGCCCAGGCCCCGCCCAA
B2: the binding result with APE1 WT is recorded as “no binding”.

B3: N3-5 G4 (structured_DNA)
DNA: TAGGGTGCTGTTTGGGCGGGGCCTGGGCGGGGCC
Take B3: the binding result with APE1 C65S and with APE1 C310S was “binds” in each case.

(Values after article PMC9931449.)
